The supplement of paper PMC9732359
± gives the uncertainty stated by the source.

Test: protein stability index of a GFP-peptide fusion (yeast GPS) (PSI 1-4); higher = more stable; sorted into four equal gates, so the index is relative within each strain
Method in brief: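 The protein stability index combines read frequencies across sorting gates, each weighted by its gate number and then summed. To obtain those frequencies, a pooled yeast library of GFP fusions to tiled 17-residue yeast protein peptides, on a plasmid also expressing Cherry, was grown to mid-log phase in leucine-free medium. The cells were sorted into four equal gates by GFP/Cherry ratio before plasmid amplification by PCR and Illumina sequencing.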

| Sequence | protein stability index (doa10∆) | protein stability index (pdr5∆) | protein stability index (san1∆) | protein stability index (ubr1∆) |
| --- | --- | --- | --- | --- |
| GRNGSNGNDESSEYETI [NUT1] | 3.13 ± 0.13 | 3.34 ± 0.11 | 3.09 ± 0.086 | 3 ± 0.12 |
| AQWERSKLSQEFLYPHL [SNF12] | 3.1 ± 0.088 | 3 ± 0.084 | 2.83 ± 0.071 | 3.08 ± 0.062 |
| PEDLNSLYIYYLIKLLG [SIR2] | 2.07 ± 0.053 | 2.15 ± 0.05 | 2.18 ± 0.064 | 1.95 ± 0.056 |
| SQSRSAKAGLTFPVGRV [HTA1] | 2.8 ± 0.071 | 2.85 ± 0.08 | 2.92 ± 0.042 | 3.07 ± 0.035 |
| IFKGIGGNFKDLSTLVH [GAL11] | 2.07 ± 0.071 | 1.74 ± 0.042 | 1.83 ± 0.073 | 1.85 ± 0.067 |
| KLVRDSFTSATERHIQV [PRE7] | 2.78 ± 0.075 | 2.9 ± 0.055 | 3.17 ± 0.055 | 2.37 ± 0.057 |
| ESGKVFIGRLPIMLRSK [RPB2] | 2.83 ± 0.1 | 2.67 ± 0.062 | 2.94 ± 0.08 | 2.79 ± 0.058 |
| DDTAANNGDKDHLKLVS [YIL149C/MLP2] | 3.25 ± 0.12 | 3.35 ± 0.11 | 2.81 ± 0.12 | 3.2 ± 0.087 |
| REASKDNVDFILSNVDL [RPB3] | 3.49 ± 0.1 | 3.3 ± 0.085 | 3.38 ± 0.061 | 3.32 ± 0.073 |
| IPRHLQLAIRNDDELNK [HTA1] | 3.02 ± 0.093 | 3.23 ± 0.063 | 3.28 ± 0.059 | 2.89 ± 0.062 |
| ASRSQLEKGEIELSDGS [YJL039C/NUP192] | 3.06 ± 0.081 | 3.02 ± 0.072 | 2.8 ± 0.07 | 3 ± 0.042 |
| ITNTDETITTKRVPNPN [SWP82] | 3.09 ± 0.077 | 3.25 ± 0.098 | 3.13 ± 0.078 | 3.21 ± 0.082 |
| STPNFGGNSNKSPPQFF [SIN4] | 2.88 ± 0.039 | 3.1 ± 0.043 | 2.89 ± 0.03 | 2.9 ± 0.032 |
| DGRSFDQFRDVEITFGK [RRP45] | 3.27 ± 0.092 | 3.3 ± 0.058 | 3.54 ± 0.077 | 3.21 ± 0.057 |
| APDGSASISLPNHIPSV [SWP82] | 3.36 ± 0.11 | 2.54 ± 0.068 | 2.77 ± 0.097 | 3.3 ± 0.044 |
| SFTSQGTISIQLKNGLL [MTR3] | 2.66 ± 0.05 | 2.67 ± 0.047 | 2.69 ± 0.055 | 2.61 ± 0.032 |
| MRILSNDITNLQLSKTP [SRB8] | 2.59 ± 0.058 | 2.71 ± 0.08 | 2.92 ± 0.052 | 2.8 ± 0.046 |
| SLEMVPKDTSAATMTSA [RGR1] | 2.47 ± 0.11 | 2.77 ± 0.12 | 2.73 ± 0.088 | 2.93 ± 0.088 |
| ILDPSTEYCVGDYVAYQ [YMR129W/POM152] | 2.83 ± 0.19 | 3.63 ± 0.18 | 2.47 ± 0.21 | – |
| SNKSNSTNESNKSISDE [SSN2] | 3.04 ± 0.077 | 3.05 ± 0.1 | 3.05 ± 0.069 | 3.09 ± 0.087 |

| Sequence | protein stability index (doa10∆) | protein stability index (pdr5∆) | protein stability index (san1∆) | protein stability index (ubr1∆) |
| --- | --- | --- | --- | --- |
| VIVPQIVLDEVRNKSYP [DIS3] | 2.68 ± 0.066 | 2.33 ± 0.089 | 2.79 ± 0.11 | 1.46 ± 0.04 |
| NLSRYPKSGIDIFVYLT [MTR3] | 2.35 ± 0.049 | 1.97 ± 0.052 | 2.07 ± 0.079 | 2.27 ± 0.054 |
| VQGSTLAQLTSKLIPEV [RPS1A] | 2.79 ± 0.061 | 2.96 ± 0.063 | 3.01 ± 0.051 | 2.76 ± 0.045 |
| EISAAHNKLNITSDALE [SMC3] | 2.64 ± 0.17 | – | 2.58 ± 0.23 | – |
| TFSWLNAELLDYLFHLL [YLR018C/POM34] | 1.64 ± 0.075 | 1.47 ± 0.039 | 1.46 ± 0.14 | 1.4 ± 0.044 |
| NSNSNSGSLFGSNNAQT [YGL172W/NUP49] | 2.6 ± 0.13 | 3.24 ± 0.085 | 2.9 ± 0.3 | 3.11 ± 0.11 |
| ALVYSYIEASGREGIWS [RPC34] | 3.13 ± 0.24 | 2.87 ± 0.24 | 2.28 ± 0.17 | 2.52 ± 0.11 |
| KGALMYGPPGTGKTLLA [RPT5] | 2.18 ± 0.074 | 2.24 ± 0.069 | 2.3 ± 0.18 | 1.35 ± 0.11 |
| VSLPEGSFKRVKPQYDE [BRR2] | 3.16 ± 0.15 | 3.09 ± 0.12 | 3.13 ± 0.11 | 2.95 ± 0.14 |
| PSTRSNFILEVFGTIIP [YJL039C/NUP192] | 1.35 ± 0.085 | 1.41 ± 0.071 | 1.28 ± 0.23 | 1.35 ± 0.072 |
| RPSFQNNRISNANEISA [SWP82] | 2.22 ± 0.043 | 2.29 ± 0.047 | 1.99 ± 0.082 | 2.47 ± 0.054 |
| YVPTRNTFNYDVKISND [RPN4] | 1.85 ± 0.068 | 2.3 ± 0.065 | 2.29 ± 0.078 | 2.25 ± 0.056 |
| SKYYPGVIIKVEESGEH [SNU114] | 1.96 ± 0.061 | 2.08 ± 0.077 | 2.28 ± 0.08 | 2.42 ± 0.073 |
| VKVHMDSETSDPNEVEI [DIS3] | 3.29 ± 0.089 | 3.5 ± 0.086 | 3.5 ± 0.077 | 3.52 ± 0.088 |
| IVFHNEFSEHTFVERLP [DIS3] | 2.43 ± 0.05 | 2.28 ± 0.063 | 2.64 ± 0.058 | 2.68 ± 0.053 |
| EEQKIVKKVVKEQTEAA [RPL34A] | – | 3.23 ± 0.16 | 3.27 ± 0.061 | 3.13 ± 0.15 |
| QNNSTGSSSIIYYDSYI [SSN2] | 2.63 ± 0.095 | 2.8 ± 0.1 | 2.79 ± 0.056 | 2.81 ± 0.081 |
| IIANINSFTKGNVFSPI [SNU114] | 2.18 ± 0.085 | 2.54 ± 0.067 | 2.43 ± 0.05 | 2.21 ± 0.039 |
| PYYKYLCEEYLVNNGQS [RPN7] | 2.86 ± 0.087 | 2.41 ± 0.091 | 2.61 ± 0.088 | 1.77 ± 0.067 |
| TISILAAPSGNYKQLTL [RRP43] | 1.77 ± 0.035 | 1.94 ± 0.032 | 1.92 ± 0.058 | 1.89 ± 0.033 |
